Test results from patent US20090110678A1 (Eli Lilly, published 2009).

B1: IMC-3G3, human anti-PDGFRα monoclonal antibody (antibody, human IgG1, V domains shown)
VH: QLQLQESGPGLVKPSETLSLTCTVSGGSINSSSYYWGWLRQSPGKGLEWIGSFFYTGSTYYNPSLRSRLTISVDTSKNQFSLMLSSVTAADTAVYYCARQSTYYYGSGNYYGWFDRWDQGTLVTVSS
VL: EIVLTQSPATLSLSPGERATLSCRASQSVSSYLAWYQQKPGQAPRLLIYDASNRATGIPARFSGSGSGTDFTLTISSLEPEDFAVYYCQQRSNWPPAFGQGTKVEIK
notes: also called EMC-3G3; anti-PDGFRα antibody
B2: PDGF-BB (ligand, UniProt P01127 82-190, looked up)
chain: SLGSLTIAEPAMIAECKTRTEVFEISRRLIDRTNANFLVWPPCVEVQRCSGCCNNRNVQCRPTQVQLRPVQVRKIEIVRKKPIFKKATVTLEDHLACKCETVAAARPVT
modifications: 125I label in the blocking assay

What was measured:
[1] = target: T1, Human PDGFRα extracellular domain (ECD) (human, UniProt P16234 24-528); experiment: solid-phase blocking of iodinated PDGF binding to immobilized PDGFRα ECD; the table does not name the ligand, [125I]PDGF-AA by the legend of FIG. 13B; solid-phase PDGF blocking; ligand not named in Table 6
T1 construct: extracellular domain; Bought reagent; also called PDGFRa ECD; PDGFRα ECD

[2] = target: T1, Human PDGFRα extracellular domain (ECD); experiment: solid-phase blocking assay: inhibition of [125I]PDGF-AA binding to immobilized PDGFRα ECD
[3] = target: T2, PDGFRα expressed on cells (PAE Rα, PC3-ML, SKLMS-1, U118) (human, UniProt P16234 24-1089); experiment: cell-based PDGF blocking assay (Heldin et al. 1988); cells and PDGF isoform not named; cell-based PDGF blocking; cells and isoform not named
T2 construct: whole, on cells; also called PDGFRa; cell surface PDGFRα

[4] = target: T1, Human PDGFRα extracellular domain (ECD); experiment: direct binding ELISA on immobilized PDGFRα ECD (ED50, 50% maximum binding)
[5] = target: T1, Human PDGFRα extracellular domain (ECD); experiment: solid-phase blocking of [125I]PDGF-BB binding to immobilized PDGFRα ECD; [125I]PDGF-BB as ligand, solid phase
[6] = target: T1, Human PDGFRα extracellular domain (ECD); experiment: SPR, BIAcore 3000, PDGFRα ECD immobilized, antibody injected
Procedure: (§1) The kinetics of antibody binding to PDGFRα was measured using a BIAcore 3000 instrument (BIAcore, Inc., Piscataway, N.J.). PDGFRα ECD was immobilized onto a sensor chip and antibody was injected at various concentrations. Sensograms were obtained at each concentration and evaluated using the BIA Evaluation 2.0 program to determine the rate constants. The affinity constant, Kd, was calculated from the ratio of rate constants Koff/Kₒₙ.

[7] = target: T2, PDGFRα expressed on cells (PAE Rα, …); experiment: cell-based or functional assay
[8] = target: T1, Human PDGFRα extracellular domain (ECD); experiment: SPR, BIAcore 3000, PDGFRα ECD immobilized, antibody injected; Koff/Kon
Procedure: as §1

T2 sequence (P16234 24-1089): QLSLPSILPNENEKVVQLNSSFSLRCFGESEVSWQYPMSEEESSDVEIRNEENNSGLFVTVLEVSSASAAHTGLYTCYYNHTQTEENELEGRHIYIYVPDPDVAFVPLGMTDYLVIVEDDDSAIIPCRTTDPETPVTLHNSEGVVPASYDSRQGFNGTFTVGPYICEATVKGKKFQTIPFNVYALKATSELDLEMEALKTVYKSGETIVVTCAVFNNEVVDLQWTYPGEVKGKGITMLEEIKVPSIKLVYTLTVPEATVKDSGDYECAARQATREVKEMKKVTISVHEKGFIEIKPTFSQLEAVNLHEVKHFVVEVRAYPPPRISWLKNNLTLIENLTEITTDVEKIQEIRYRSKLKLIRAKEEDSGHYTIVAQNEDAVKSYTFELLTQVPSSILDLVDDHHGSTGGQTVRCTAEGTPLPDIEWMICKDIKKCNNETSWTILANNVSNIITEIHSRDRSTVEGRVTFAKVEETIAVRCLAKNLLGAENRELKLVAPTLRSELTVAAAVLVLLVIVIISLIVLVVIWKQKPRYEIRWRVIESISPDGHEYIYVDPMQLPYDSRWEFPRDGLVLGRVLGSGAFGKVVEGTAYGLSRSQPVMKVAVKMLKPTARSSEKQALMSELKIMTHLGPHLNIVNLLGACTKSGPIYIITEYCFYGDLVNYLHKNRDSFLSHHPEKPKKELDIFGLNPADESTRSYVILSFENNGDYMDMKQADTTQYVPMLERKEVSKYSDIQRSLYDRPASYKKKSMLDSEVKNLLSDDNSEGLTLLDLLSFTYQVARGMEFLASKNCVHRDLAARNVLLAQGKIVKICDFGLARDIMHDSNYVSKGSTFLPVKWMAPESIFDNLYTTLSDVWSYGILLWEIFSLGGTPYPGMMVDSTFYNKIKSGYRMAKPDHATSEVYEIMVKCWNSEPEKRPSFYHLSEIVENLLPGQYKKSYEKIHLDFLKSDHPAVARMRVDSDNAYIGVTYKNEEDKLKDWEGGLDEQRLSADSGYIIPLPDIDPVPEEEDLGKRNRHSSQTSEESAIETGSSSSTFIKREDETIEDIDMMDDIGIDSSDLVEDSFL
T1 sequence (P16234 24-528): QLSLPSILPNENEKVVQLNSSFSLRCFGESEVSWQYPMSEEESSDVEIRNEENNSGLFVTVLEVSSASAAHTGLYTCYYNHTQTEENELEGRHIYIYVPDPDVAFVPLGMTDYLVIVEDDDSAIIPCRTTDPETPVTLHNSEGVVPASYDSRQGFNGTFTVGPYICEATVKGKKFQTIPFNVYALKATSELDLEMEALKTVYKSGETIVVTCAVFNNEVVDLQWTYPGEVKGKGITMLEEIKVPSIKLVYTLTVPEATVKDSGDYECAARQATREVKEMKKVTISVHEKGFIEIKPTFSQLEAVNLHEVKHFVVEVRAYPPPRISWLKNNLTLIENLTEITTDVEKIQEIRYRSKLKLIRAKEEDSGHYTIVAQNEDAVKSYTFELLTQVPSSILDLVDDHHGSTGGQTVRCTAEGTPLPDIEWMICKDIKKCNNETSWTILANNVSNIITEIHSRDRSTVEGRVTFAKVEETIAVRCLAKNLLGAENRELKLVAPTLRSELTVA

Row | Binder | IC50 [1] [pM] | IC50 (read off the curve) [2] [pM] | IC50 [3] [pM] | EC50 [4] [pM] | IC50 [5] [pM] | koff [6] [s⁻¹] | EC50, inhibition of PDGF-AA-induced thymidine incorporation in U118 cells [7] [pM] | Kd [8] [pM] | PDGFRα tyrosine phosphorylation in PAE Rα cells [7]
1 | B1 | 240 | ~300 | 580 | 60 | 430 | 4.7e-05 | 3400 | 40 | 
2 | B2 |  |  |  |  |  |  |  |  | ~5 fold (at 3 nmol/L)
